In US20210130436A1 (published 2021):

Key:
[1] = molecular target: T1, human CTLA4 (human, UniProt P16410 36-223); test: flow cytometry, CHO cells expressing huCTLA4
T1 construct: also called huCTLA4

[2] = molecular target: human CD28 (human, UniProt P10747 19-220); test: flow cytometry, Jurkat/IL2 reporter cells (endogenous CD28)
[3] = molecular target: T2, human PD-L1 (human, UniProt Q9NZQ7 19-290); test: flow cytometry; PD-L1 MFI over CD28 MFI
T2 construct: also called huPD-L1; CD274

[4] = molecular target: T3, human CD28 (human, UniProt P10747 19-220); test: flow cytometry on Jurkat cells (CD28)
T3 construct: Endogenous CD28 on Jurkat/IL2 reporter cells

[5] = molecular target: T2, human PD-L1; test: flow cytometry on CHO cells stably expressing PD-L1
[6] = molecular target: T4, human CTLA-4 (human, UniProt P16410 36-223); test: flow cytometry on CHO cells stably expressing CTLA4
T4 construct: also called huCTLA4

[7] = molecular target: T2, human PD-L1; test: flow cytometry on CHO cells stably expressing PD-L1; vs CD80 WT IgV-Fc
[8] = molecular target: T3, human CD28; test: flow cytometry on Jurkat cells (CD28); vs CD80 WT IgV-Fc
[9] = molecular target: T4, human CTLA-4; test: flow cytometry on CHO cells stably expressing CTLA4; vs CD80 WT IgV-Fc
[10] = molecular target: T2, human PD-L1; test: cell-based or functional assay
[11] = molecular target: T5, CD28, endogenously expressed on Jurkat/IL2 reporter cells (human, UniProt P10747 19-220); test: flow cytometry on Jurkat/IL2 reporter cells (endogenous CD28); PE anti-human Fc
T5 construct: Endogenous CD28 of Jurkat/IL2 reporter cells

T4 sequence (P16410 36-223): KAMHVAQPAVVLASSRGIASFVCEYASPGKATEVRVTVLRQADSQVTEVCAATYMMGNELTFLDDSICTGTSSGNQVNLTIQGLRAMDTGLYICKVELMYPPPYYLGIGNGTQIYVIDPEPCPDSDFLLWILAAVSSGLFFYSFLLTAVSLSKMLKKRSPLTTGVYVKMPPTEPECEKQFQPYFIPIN
T2 sequence (Q9NZQ7 19-290): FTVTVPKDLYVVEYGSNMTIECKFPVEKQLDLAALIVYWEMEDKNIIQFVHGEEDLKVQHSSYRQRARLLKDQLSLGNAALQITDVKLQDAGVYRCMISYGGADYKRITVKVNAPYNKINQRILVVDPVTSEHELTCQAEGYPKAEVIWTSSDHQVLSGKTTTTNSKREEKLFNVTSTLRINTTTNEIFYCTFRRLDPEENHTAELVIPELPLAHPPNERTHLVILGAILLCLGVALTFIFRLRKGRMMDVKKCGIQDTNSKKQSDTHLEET
T1 sequence (P16410 36-223): as the sequence (P16410 36-223) above

B1: variant CD80 IgV-Fc H18Y/A26E/A71G/D90G (Fc fusion, not shown: small tags and cut ends; a dimerising Fc or GST)
chain: VIHVTKEVKEVATLSCGYNVSVEELEQTRIYWQKEKKMVLTMMSGDMNIWPEYKNRTIFDITNNLSIVILGLRPSDEGTYECVVLKYEKGAFKREHLAEVTLSVKAD
With B1 the “MFI at 33.3 nM” value [1] was 19900 MFI and the “MFI at 33.3 nM” value [2] was 2000 MFI.

B2: wild-type CD80 IgV-Fc (inert) with GSG4S linker, Example 16 (Fc fusion)
chain: VIHVTKEVKEVATLSCGHNVSVEELAQTRIYWQKEKKMVLTMMSGDMNIWPEYKNRTIFDITNNLSIVILALRPSDEGTYECVVLKYEKDAFKREHLAEVTLSVKADGSGGGGSEPKSSDKTHTCPPCPAPEAEGAPSVFLFPPKPKDTLMISRTPEVTCVVVDVSHEDPEVKFNWYVDGVEVHNAKTKPREEQYNSTYRVVSVLTVLHQDWLNGKEYKCKVSNKALPAPIEKTISKAKGQPREPQVYTLPPSREEMTKNQVSLTCLVKGFYPSDIAVEWESNGQPENNYKTTPPVLDSDGSFFLYSKLTVDKSRWQQGNVFSCSVMHEALHNHYTQKSLSLSPG
notes: also called CD80 WT IgV-Fc
In the case of B2, the “Ratio of PDL1:CD28” value [3] is reported as 1 ratio, the “MFI at 33.3 nM” value [4] is reported as 56 MFI and the “MFI at 33.3 nM” value [5] is reported as 47 MFI. For the same binder, the “MFI at 33.3 nM” value [6] was 1200 MFI, the “Fold change to WT CD80” value [7] was 1 fold and the “Fold change to WT CD80” value [8] was 1 fold. The “Fold change to WT CD80” value [9] was 1 fold, the “Fold Increase over WT CD80-IgV-Fc, Jurkat/IL2 + CHO/OKT3/PD-L1 Reporter Assay” value [10] was 1 fold and the “RLU, Jurkat/IL2 + CHO/OKT3/PD-L1 Reporter Assay, CD80 Conc 5.0 nM” value [10] was 390 RLU.

B3: CD80 E35D/M47V/N48K/V68M/K89N IgV-Fc, delta linker (Fc fusion)
chain: VIHVTKEVKEVATLSCGHNVSVEELAQTRIYWQKDKKMVLTMMSGDVKIWPEYKNRTIFDITNNLSIMILALRPSDEGTYECVVLKYENDAFKREHLAEVTLSVKTHTCPPCPAPEAEGAPSVFLFPPKPKDTLMISRTPEVTCVVVDVSHEDPEVKFNWYVDGVEVHNAKTKPREEQYNSTYRVVSVLTVLHQDWLNGKEYKCKVSNKALPAPIEKTISKAKGQPREPQVYTLPPSREEMTKNQVSLTCLVKGFYPSDIAVEWESNGQPENNYKTTPPVLDSDGSFFLYSKLTVDKSRWQQGNVFSCSVMHEALHNHYTQKSLSLSPG
notes: Fused directly to the Fc with no additional linker; also called E35D/M47V/N48K/V68M/K89N delta
In the case of B3, the “Ratio of PDL1:CD28” value [3] is reported as 4 ratio, the “MFI at 33.3 nM” value [4] is reported as 4680 MFI and the “MFI at 33.3 nM” value [5] is reported as 20400 MFI. For the same binder, the “MFI at 33.3 nM” value [6] was 3090 MFI, the “Fold change to WT CD80” value [7] was 439 fold and the “Fold change to WT CD80” value [8] was 83.7 fold. The “Fold change to WT CD80” value [9] was 2.6 fold, the “Fold Increase over WT CD80-IgV-Fc, Jurkat/IL2 + CHO/OKT3/PD-L1 Reporter Assay” value [10] was 2.63 fold and the “RLU, Jurkat/IL2 + CHO/OKT3/PD-L1 Reporter Assay, CD80 Conc 5.0 nM” value [10] was 1030 RLU.

B4: CD80 E35D/D46V/M47L/V68M/L85Q/E88D IgV-Fc, delta linker (Fc fusion)
chain: VIHVTKEVKEVATLSCGHNVSVEELAQTRIYWQKDKKMVLTMMSGVLNIWPEYKNRTIFDITNNLSIMILALRPSDEGTYECVVQKYDKDAFKREHLAEVTLSVKTHTCPPCPAPEAEGAPSVFLFPPKPKDTLMISRTPEVTCVVVDVSHEDPEVKFNWYVDGVEVHNAKTKPREEQYNSTYRVVSVLTVLHQDWLNGKEYKCKVSNKALPAPIEKTISKAKGQPREPQVYTLPPSREEMTKNQVSLTCLVKGFYPSDIAVEWESNGQPENNYKTTPPVLDSDGSFFLYSKLTVDKSRWQQGNVFSCSVMHEALHNHYTQKSLSLSPG
notes: Fused directly to the Fc with no additional linker; also called E35D/D46V/M47L/V68M/L85Q/E88D delta
For B4, the “Ratio of PDL1:CD28” value [3] was 5 ratio, the “MFI at 33.3 nM” value [4] was 4170 MFI and the “MFI at 33.3 nM” value [5] was 22500 MFI. The “MFI at 33.3 nM” value [6] was 12200 MFI, the “Fold change to WT CD80” value [7] was 484 fold and the “Fold change to WT CD80” value [8] was 74.7 fold. For the same binder, the “Fold change to WT CD80” value [9] was 10.2 fold, the “Fold Increase over WT CD80-IgV-Fc, Jurkat/IL2 + CHO/OKT3/PD-L1 Reporter Assay” value [10] was 2.77 fold and the “RLU, Jurkat/IL2 + CHO/OKT3/PD-L1 Reporter Assay, CD80 Conc 5.0 nM” value [10] was 1080 RLU.

B5: WT CD80 ECD-Fc (R&D) (Fc fusion)
chain: VIHVTKEVKEVATLSCGHNVSVEELAQTRIYWQKEKKMVLTMMSGDMNIWPEYKNRTIFDITNNLSIVILALRPSDEGTYECVVLKYEKDAFKREHLAEVTLSVKADFPTPSISDFEIPTSNIRRIICSTSGGFPEPHLSWLENGEELNAINTTVSQDPETELYAVSSKLDFNMTTNHSFMCLIKYGHLRVNQTFNWNTTKQEHFPDN
notes: Bought from R&D Systems; also called unmodified CD80-ECD-Fc fusion molecule (R&D Systems, USA); wild-type CD80-ECD-Fc; not shown: Fc and any linker of the bought R&D Systems protein are not described
B5 was tested, and the “MFI at 33.3 nM” value [11] was 18000 MFI.

B6: CD80 E35D/D46V/M47L/V68M/L85Q/E88D IgV-Fc, (EAAAK)3 linker (Fc fusion, not shown: a dimerising Fc or GST)
chain: VIHVTKEVKEVATLSCGHNVSVEELAQTRIYWQKDKKMVLTMMSGVLNIWPEYKNRTIFDITNNLSIMILALRPSDEGTYECVVQKYDKDAFKREHLAEVTLSVKADEAAAKEAAAKEAAAK
For B6, the “Ratio of PDL1:CD28” value [3] was 129 ratio, the “MFI at 33.3 nM” value [4] was 197 MFI and the “MFI at 33.3 nM” value [5] was 25500 MFI. The “MFI at 33.3 nM” value [6] was 32000 MFI, the “Fold change to WT CD80” value [7] was 546 fold and the “Fold change to WT CD80” value [8] was 3.5 fold. For the same binder, the “Fold change to WT CD80” value [9] was 26.8 fold, the “Fold Increase over WT CD80-IgV-Fc, Jurkat/IL2 + CHO/OKT3/PD-L1 Reporter Assay” value [10] was 5.25 fold and the “RLU, Jurkat/IL2 + CHO/OKT3/PD-L1 Reporter Assay, CD80 Conc 5.0 nM” value [10] was 2050 RLU.
